Values of other authors, collected in patent US10159715B2, “Method for treating diabetes comprising long-acting insulin analogue conjugate and long-acting insulinotropic peptide conjugate” (HANMI PHARM. CO., LTD., priority 2014, dated 2018).

Columns and labels:
[1] = in vivo
[2] = tested on: type 2 diabetes-induced rodent model

In the case of “GLP-1: incretin hormone secreted by L-cells of the ileum and colon; insulinotropic peptide”, the half-life in blood [1] is listed as “less than 2 minutes” and the “growth and differentiation of the beta cells / beta cell mass” value [2] is listed as “increasing the beta cell mass”.
